{"source": "paper PMC5792450", "about": "“PRRT2 Regulates Synaptic Fusion by Directly Modulating SNARE Complex Assembly” (Cell Reports, 2018)", "binders": {"B1": {"name": "proline-rich transmembrane protein 2 (PRRT2), full-length, wild type (natural protein, human, UniProt Q7Z6L0 1-340, looked up)", "chain": "MAASSSEISEMKGVEESPKVPGEGPGHSEAETGPPQVLAGVPDQPEAPQPGPNTTAAPVDSGPKAGLAPETTETPAGASETAQATDLSLSPGGESKANCSPEDPCQETVSKPEVSKEATADQGSRLESAAPPEPAPEPAPQPDPRPDSQPTPKPALQPELPTQEDPTPEILSESVGEKQENGAVVPLQAGDGEEGPAPEPHSPPSKKSPPANGAPPRVLQQLVEEDRMRRAHSGHPGSPRGSLSRHPSSQLAGPGVEGGEGTQKPRDYIILAILSCFCPMWPVNIVAFAYAVMSRNSLQQGDVDGAQRLGRVAKLLSIVALVGGVLIIIASCVINLGVYK", "notes": "PRRT2, human, full length, cloned into pGEX6p-1; In the fusion, docking and FRET assays it was reconstituted into liposomes; also called purified PRRT2; recombinant PRRT2; source: E. coli Rosetta2(DE3), purified (glutathione agarose, cleaved off the resin with PreScission Protease)"}}, "biological_target": "T1, t-SNARE (syntaxin1a/SNAP25) (UniProt P32851 1-288; P60879 1-206)", "T1 construct": "syntaxin1a; SNAP25; also called t-SNARE complexes; synaptic t-SNAREs", "T1 sequence (P32851 whole entry, chain 1 of 2)": "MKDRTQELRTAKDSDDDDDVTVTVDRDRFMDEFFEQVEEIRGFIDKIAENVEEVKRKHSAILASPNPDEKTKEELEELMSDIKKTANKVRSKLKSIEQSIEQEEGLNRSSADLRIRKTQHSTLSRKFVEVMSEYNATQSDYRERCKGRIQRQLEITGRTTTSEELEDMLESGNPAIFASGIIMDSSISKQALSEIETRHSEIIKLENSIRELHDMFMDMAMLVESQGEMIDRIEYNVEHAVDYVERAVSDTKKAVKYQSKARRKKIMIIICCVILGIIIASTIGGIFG", "T1 sequence (P60879 whole entry, chain 2 of 2)": "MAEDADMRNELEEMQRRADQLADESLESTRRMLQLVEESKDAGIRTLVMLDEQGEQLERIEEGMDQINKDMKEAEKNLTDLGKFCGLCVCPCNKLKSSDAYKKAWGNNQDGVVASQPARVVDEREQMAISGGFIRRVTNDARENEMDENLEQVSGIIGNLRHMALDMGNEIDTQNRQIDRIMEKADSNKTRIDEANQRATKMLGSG", "test": "MST; t-SNARE or assembled SNARE complex titrated in solution, up to ∼150 μM t-SNARE and ∼60 μM SNARE complex; binding not saturated; soluble conditions; Syt1 tested likewise", "conditions": "both partners purified", "data": [{"binder": "B1", "values": [{"measurement": "Kd", "value": "≥ 50", "unit": "µM"}]}]}
